In PMC11324738:
Each block holds one binder with its values, some of them ahead of it.

What was measured:
GFP-LC3, Q9GZQ8 = assay: Co-immunoprecipitation; conditions: chain shown with the change; HEK293T cells co-transfected with GFP-LC3 and GPR50-FLAG constructs; IP anti-FLAG; n = 4 independent experiments; parent: est. 1.0; read off a plot
[1] = molecular target: endogenous LC3 (human cells), Q9GZQ8; assay: Proximity Ligation Assay; conditions: chain shown with the change; HeLa cells transfected with GPR50-FLAG constructs; antibodies against LC3 and FLAG; n = 178–208 cells per group from 3 independent experiments; parent: est. 25; read off a plot
[2] = molecular target: recombinant LC3 protein, Q9GZQ8; assay: ELISA; conditions: chain shown with the change, recombinant LC3 coated on the plate, biotin-labeled synthetic peptide, read off a plot

ratio to parent (GFP-LC3, Q9GZQ8): 0.65
response (DUO (+) spots/cell) [1]: 5.5
B1: GPR50-FLAG WT, Q13585 Y305A; W306A; T307A; I308A (protein)
chain: MGPTLAVPTPYGCIGCKLPQPEYPPALIIFMFCAMVITIVVDLIGNSMVILAVTKNKKLRNSGNIFVVSLSVADMLVAIYPYPLMLHAMSIGGWDLSQLQCQMVGFITGLSVVGSIFNIVAIAINRYCYICHSLQYERIFSVRNTCIYLVITWIMTVLAVLPNMYIGTIEYDPRTYTCIFNYLNNPVFTVTIVCIHFVLPLLIVGFCYVRIWTKVLAARDPAGQNPDNQLAEVRNFLTMFVIFLLFAVCWCPINVLTVLVAVSPKEMAGKIPNWLYLAAYFIAYFNSCLNAVIYGLLNENFRREAAAAFHAMRHPIIFFSGLISDIREMQEARTLARARAHARDQAREQDRAHACPAVEETPMNVRNVPLPGDAAAGHPDRASGHPKPHSRSSSAYRKSASTHHKSVFSHSKAASGHLKPVSGHSKPASGHPKSATVYPKPASVHFKADSVHFKGDSVHFKPDSVHFKPASSNPKPITGHHVSAGSHSKSAFSAATSHPKPTTGHIKPATSHAEPTTADYPKPATTSHPKPTAADNPELSASHCPEIPAIAHPVSDDSDLPESASSPAAGPTKPAASQLESDTIADLPDPTVVTTSTNDYHDVVVIDVEDDPDEMAV

response ([2]; peptide 1 µM, parent: est. 0.47): 0.38 OD (562 nm)
response ([2]; peptide 2.5 µM, parent: est. 1.2): 0.35 OD (562 nm)
response ([2]; peptide 5 µM, parent: est. 3.2): 0.38 OD (562 nm)
response ([2]; peptide 10 µM, parent: est. 3.7): 0.4 OD (562 nm)
response ([2]; peptide 20 µM, parent: est. 3.7): 0.4 OD (562 nm)
response ([2]; peptide 40 µM, parent: est. 3.7): 0.5 OD (562 nm)
B2: biotin-labeled synthetic GPR50 LIR peptide, a.a. 290-312 (WT), Q13585 Y305A; W306A; T307A; I308A (peptide)
chain: NAVIYGLLNENFRREAAAAFHAM
